Laboratory results: publication PMC1762009, “Structure of the yeast histone H3-ASF1 interaction: implications for chaperone mechanism, species-specific interactions, and epigenetics” (BMC Structural Biology, 2006)

Target: T1, conserved N-terminus of yeast Asf1 (residues 2–155) (S. cerevisiae, UniProt P32447 2-155)
T1 construct: Asf1 (anti-silencing function 1), budding yeast, residues 2-155; Written as a molecule of its own for the pair; also called Asf1N; ScAsf1; source: E. coli, purified (Ni-chromatography, TEV cleavage, second Ni step, gel filtration); not shown: His6, N-terminal, cleaved; MBP, N-terminal, cleaved
T1 sequence (P32447 2-155): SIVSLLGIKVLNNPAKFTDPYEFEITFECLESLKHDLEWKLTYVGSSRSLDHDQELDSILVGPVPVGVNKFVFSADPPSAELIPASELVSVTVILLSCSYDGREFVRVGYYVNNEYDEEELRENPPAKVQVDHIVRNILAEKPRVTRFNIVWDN
Experiment: crystal structure; Asf1N fused to H3α3 by the linker AAGAATAA on one chain; hanging-drop vapor diffusion, 18°C, 85 mM Tris-HCl (pH 8.5), 120 mM Li2SO4, 25% PEG 4000, 15% glycerol; 2.2 Å
Conditions: both partners purified

B1: C-terminal α3 helix of yeast histone H3 (residues 121–134) (domain or fragment, S. cerevisiae, UniProt P61830 122-135, looked up)
chain: KKDIKLARRLRGER
notes: histone H3, budding yeast, C-terminal alpha helix, amino acids 121-134; The final model holds H3 residues 121-131 only; also called H3α3; ScH3 121-134; source: E. coli, purified (Ni-chromatography, TEV cleavage, second Ni step, gel filtration), as a fusion behind Asf1N
**Q.** Does B1 bind?
**A.** Result: binds
